The text below walks through data of article PMC10450186.

In data set [1] the target is T1, RPA heterotrimer WT (RPA70/RPA32/RPA14) (human, UniProt P27694;P15927;P35244 1-616;1-270;1-121). Put plainly: EMSA; three shifted bands; EMSA: 50 mM Tris-HCl pH 7.5, 50 mM NaCl, 1 mM DTT, 0.01% Tween-20, 23°C, 10 nM labeled DNA; NSMF-DNA gels 1.5% agarose in 1xTBE at 4°C. As to conditions: protein: recombinant; tags: untagged; 7xHis version also made; copies: 1;1;1; label: 5' Cy5.

For data set [2], the target named is T2, pmRPA-S33D (human, UniProt P27694;P15927;P35244 1-616;1-270;1-121, S33D;RPA32). Put plainly: EMSA; two shifted bands; EMSA: 50 mM Tris-HCl pH 7.5, 50 mM NaCl, 1 mM DTT, 0.01% Tween-20, 23°C, 10 nM labeled DNA; NSMF-DNA gels 1.5% agarose in 1xTBE at 4°C. As to conditions: protein: recombinant; tags: 7xHis; copies: 1;1;1; label: 5' Cy5.
T2 sequence (P27694 whole entry, stated change not applied, chain 1 of 3): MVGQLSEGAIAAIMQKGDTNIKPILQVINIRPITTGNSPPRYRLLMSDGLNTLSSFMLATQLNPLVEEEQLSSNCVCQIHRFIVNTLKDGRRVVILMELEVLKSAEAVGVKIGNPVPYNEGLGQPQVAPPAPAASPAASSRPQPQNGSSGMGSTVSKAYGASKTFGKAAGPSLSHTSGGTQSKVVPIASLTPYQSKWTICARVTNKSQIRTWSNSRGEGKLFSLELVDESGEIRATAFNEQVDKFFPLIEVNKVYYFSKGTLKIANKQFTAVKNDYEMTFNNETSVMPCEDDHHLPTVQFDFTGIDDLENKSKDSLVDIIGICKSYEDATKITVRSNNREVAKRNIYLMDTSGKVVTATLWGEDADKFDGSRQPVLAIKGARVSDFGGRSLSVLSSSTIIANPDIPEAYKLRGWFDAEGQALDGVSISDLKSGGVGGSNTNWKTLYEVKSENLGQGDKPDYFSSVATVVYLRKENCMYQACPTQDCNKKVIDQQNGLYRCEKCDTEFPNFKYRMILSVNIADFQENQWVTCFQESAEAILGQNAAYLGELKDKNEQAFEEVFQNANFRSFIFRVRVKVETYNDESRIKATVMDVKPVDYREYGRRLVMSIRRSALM
T2 sequence (P15927 whole entry S33D, chain 2 of 3): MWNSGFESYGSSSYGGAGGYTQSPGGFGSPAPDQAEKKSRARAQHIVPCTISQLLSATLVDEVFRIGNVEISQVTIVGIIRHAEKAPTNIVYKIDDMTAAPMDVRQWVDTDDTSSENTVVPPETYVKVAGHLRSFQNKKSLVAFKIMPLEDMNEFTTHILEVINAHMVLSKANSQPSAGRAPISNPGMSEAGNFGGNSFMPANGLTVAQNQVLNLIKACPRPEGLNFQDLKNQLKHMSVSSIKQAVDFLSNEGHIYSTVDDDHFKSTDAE
T2 sequence (P35244 whole entry, stated change not applied, chain 3 of 3): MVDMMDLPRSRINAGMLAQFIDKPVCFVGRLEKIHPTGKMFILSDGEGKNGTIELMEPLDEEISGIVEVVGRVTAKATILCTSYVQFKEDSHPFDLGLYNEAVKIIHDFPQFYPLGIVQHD
The target of data set [3] is T3, RPA-eGFP heterotrimer (human, UniProt P27694;P15927;P35244 1-616;1-270;1-121). Put plainly: single-molecule photobleaching; three steps predominant; EMSA: 50 mM Tris-HCl pH 7.5, 50 mM NaCl, 1 mM DTT, 0.01% Tween-20, 23°C, 10 nM labeled DNA; NSMF-DNA gels 1.5% agarose in 1xTBE at 4°C. The following applies: protein: recombinant; tags: 6xHis; eGFP at C-term of RPA70; copies: 1;1;1; label: 5' biotin.
T3 sequence (P27694 whole entry, chain 1 of 3): as the sequence (P27694 whole entry, stated change not applied, chain 1 of 3) above
T3 sequence (P15927 whole entry, chain 2 of 3): as the sequence (P15927 whole entry S33D, chain 2 of 3) above, with D33S counted along it
T3 sequence (P35244 whole entry, chain 3 of 3): as the sequence (P35244 whole entry, stated change not applied, chain 3 of 3) above

In data set [4] the target is T4, NSMF WT (UniProt Q6X4W1 1-530).
T4 sequence: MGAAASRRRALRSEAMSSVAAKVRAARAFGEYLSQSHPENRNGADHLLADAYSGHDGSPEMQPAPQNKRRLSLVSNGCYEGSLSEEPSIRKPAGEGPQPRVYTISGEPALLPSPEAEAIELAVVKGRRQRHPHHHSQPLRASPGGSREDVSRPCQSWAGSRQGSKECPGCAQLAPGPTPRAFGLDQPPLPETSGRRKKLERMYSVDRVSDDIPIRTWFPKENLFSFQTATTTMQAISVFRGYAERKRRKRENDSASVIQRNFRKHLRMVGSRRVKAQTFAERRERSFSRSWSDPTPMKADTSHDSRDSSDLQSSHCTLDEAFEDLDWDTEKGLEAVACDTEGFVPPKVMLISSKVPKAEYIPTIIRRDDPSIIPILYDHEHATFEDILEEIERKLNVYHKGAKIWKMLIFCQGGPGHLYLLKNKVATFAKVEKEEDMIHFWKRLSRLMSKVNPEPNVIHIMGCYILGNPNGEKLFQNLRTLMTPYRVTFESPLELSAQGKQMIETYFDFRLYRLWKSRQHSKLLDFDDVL
Put plainly: EMSA; low affinity; EMSA: 50 mM Tris-HCl pH 7.5, 50 mM NaCl, 1 mM DTT, 0.01% Tween-20, 23°C, 10 nM labeled DNA; NSMF-DNA gels 1.5% agarose in 1xTBE at 4°C. As to conditions: protein: recombinant, tags: N-term 3xFLAG, C-term 10xHis (MBP cleaved).

The target of data set [5] is T1, RPA heterotrimer WT (RPA70/RPA32/RPA14). Put plainly: EMSA; single shifted band; EMSA: 50 mM Tris-HCl pH 7.5, 50 mM NaCl, 1 mM DTT, 0.01% Tween-20, 23°C, 10 nM labeled DNA; NSMF-DNA gels 1.5% agarose in 1xTBE at 4°C. The following applies: protein: recombinant; tags: untagged; 7xHis version also made; copies: 1;1;1; label: 5' Cy5.
Data set [6] deals with T3, RPA-eGFP heterotrimer. Put plainly: single-molecule photobleaching; two steps predominant; EMSA: 50 mM Tris-HCl pH 7.5, 50 mM NaCl, 1 mM DTT, 0.01% Tween-20, 23°C, 10 nM labeled DNA; NSMF-DNA gels 1.5% agarose in 1xTBE at 4°C. The following applies: protein: recombinant; tags: 6xHis; eGFP at C-term of RPA70; copies: 1;1;1; label: 5' biotin.
Data set [7] concerns the target T4, NSMF WT. Put plainly: EMSA; up to 3000 nM NSMF; EMSA: 50 mM Tris-HCl pH 7.5, 50 mM NaCl, 1 mM DTT, 0.01% Tween-20, 23°C, 10 nM labeled DNA; NSMF-DNA gels 1.5% agarose in 1xTBE at 4°C. As to conditions: protein: recombinant; tags: N-term 3xFLAG, C-term 10xHis (MBP cleaved); label: Cy3 on Oligo1, Cy5 on RNA oligo; bubble 1:2, RNA strand 3 paired to strand 2 in bubble.

The target in data set [8] is T2, pmRPA-S33D. Put plainly: EMSA; one shifted band; EMSA: 50 mM Tris-HCl pH 7.5, 50 mM NaCl, 1 mM DTT, 0.01% Tween-20, 23°C, 10 nM labeled DNA; NSMF-DNA gels 1.5% agarose in 1xTBE at 4°C. As to conditions: protein: recombinant; tags: 7xHis; copies: 1;1;1; label: 5' Cy5.
Data set [9] has as its target T1, RPA heterotrimer WT (RPA70/RPA32/RPA14). Put plainly: EMSA; two shifted bands up to 150 nM RPA; EMSA: 50 mM Tris-HCl pH 7.5, 50 mM NaCl, 1 mM DTT, 0.01% Tween-20, 23°C, 10 nM labeled DNA; NSMF-DNA gels 1.5% agarose in 1xTBE at 4°C. As to conditions: protein: recombinant; tags: untagged; 7xHis version also made; copies: 1;1;1; label: 5' Cy5.
For a further data set, the target named is DBM-RPA (human, UniProt P27694;P15927;P35244 1-616;1-270;1-121, W107A;F135A;RPA32). Put plainly: EMSA; 25 nM; single molecule bound; EMSA: 50 mM Tris-HCl pH 7.5, 50 mM NaCl, 1 mM DTT, 0.01% Tween-20, 23°C, 10 nM labeled DNA; NSMF-DNA gels 1.5% agarose in 1xTBE at 4°C. The following applies: protein: recombinant; copies: 1;1;1; label: 5' Cy5.
Sequence of DBM-RPA (P27694 whole entry, stated change not applied, chain 1 of 3): as the sequence (P27694 whole entry, stated change not applied, chain 1 of 3) above
Sequence of DBM-RPA (P15927 whole entry W107A/F135A, chain 2 of 3): as the sequence (P15927 whole entry S33D, chain 2 of 3) above, with D33S, W107A, F135A counted along it
Sequence of DBM-RPA (P35244 whole entry, stated change not applied, chain 3 of 3): as the sequence (P35244 whole entry, stated change not applied, chain 3 of 3) above
Data set [10] addresses T3, RPA-eGFP heterotrimer. Put plainly: single-molecule fluorescence; EMSA: 50 mM Tris-HCl pH 7.5, 50 mM NaCl, 1 mM DTT, 0.01% Tween-20, 23°C, 10 nM labeled DNA; NSMF-DNA gels 1.5% agarose in 1xTBE at 4°C. The following applies: protein: recombinant; tags: 6xHis; eGFP at C-term of RPA70; copies: 1;1;1; label: 5' biotin.

T1 sequence (P27694 whole entry, chain 1 of 3): as the sequence (P27694 whole entry, stated change not applied, chain 1 of 3) above
T1 sequence (P15927 whole entry, chain 2 of 3): as the sequence (P15927 whole entry S33D, chain 2 of 3) above, with D33S counted along it
T1 sequence (P35244 whole entry, chain 3 of 3): as the sequence (P35244 whole entry, stated change not applied, chain 3 of 3) above

B1: 60-nt ssDNA (ssDNA)
DNA: TATTCATTGTTTTACCTATTGTACCTTATTCTTAATTCATTTTACTAATCATTTACGAGT
As to B1, the binding result (in data set [1]; with pmRPA-S33D [2]) was “binds” each time.

B2: Biotinylated 60-nt ssDNA (ssDNA)
DNA: B1 DNA
Take B2: the binding result with RPA-eGFP heterotrimer [3] was “binds”.

B3: Fork (Y-shape) (mixed)
DNA 1: GCCAGGGACGAGGTGAACCTGCAGGTGGGCGGCTACTACTTTTTTTTTTTTTTTTTTTTTTTTTTTTTTTTTTTTTTTT
DNA 2: TTTTTTTTTTTTTTTTTTTTTTTTTTTTTTTTTTTTTTTAGTAGTAGCCGCCCACCTGCAGGTTCACCTCGTCCCTGGC
As for B3, in the data set with NSMF WT [4] (label: 5' Cy5 on strand 1, fork 1:2, two poly-dT arms), the binding result is reported as “binds”.
For the molecule TTTTTTTTTTTTTT (ssDNA) [14-nt ssDNA (dT14)], the binding result in data set [5] is on record as “binds”.
On to TTTTTTTTTTTTTTTTTTTTTTTTTTTTTT (ssDNA) [Biotinylated 30-nt ssDNA], for which the binding result with RPA-eGFP heterotrimer [6] is “binds”.

B4: R-loop (mixed)
DNA 1: GCCAGGGACGAGGTGAACCTGCAGGTGGGCGGCTACTACTTAGATGTCATCCGAGGCTTATTGGTAGAATTCGGCAGCGTCATGCGACGGC
DNA 2: GCCGTCGCATGACGCTGCCGAATTCTACCACGCGATTCATACCTGTCGTGCCAGCTGCTTTGCCCACCTGCAGGTTCACCTCGTCCCTGGC
RNA: GCAGCUGGCACGACAGGUAUGAAUC
As for B4, the binding result with NSMF WT [7] is listed as “no binding”.

B5: PTJ (primer-template junction) (mixed)
DNA 1: TGGCGACGGCAGCGAGGCAGGTCAGGAATTCTGATC
DNA 2: GATCAGAATTCCTGACCT
For the molecule B5, the binding result in the data set with NSMF WT [4] (18 bp duplex, 5' overhang 18 nt on strand 1) is given as “binds”.
Regarding TTTTTTTTTTTTTTTTTTTTTTTTTTTTTT (ssDNA) [30-nt ssDNA (dT30)], the binding result (with pmRPA-S33D [8]; in data set [9]; in the data set with DBM-RPA) was “binds” in each case.
Regarding TTTTTTTTTTTTTT (ssDNA) [Biotinylated 14-nt ssDNA], the binding result with RPA-eGFP heterotrimer [10] was “binds”.
